As usually defined, the Kd is the equilibrium constant for the complex coming apart. A high value points to lower affinity.

The chains are these.
B1: N-WASPC (N-WASP residues 193-501) (domain or fragment)
chain: KRLTKADIGTPSNFQHIGHVGWDPNTGFDLNNLDPELKNLFDMCGISEAQLKDRETSKVIYDFIEKTGGVEAVKNELRRQAPPPPPPSRGGPPPPPPPPHSSGPPPPPARGRGAPPPPPSRAPTAAPPPPPPSRPGVVVPPPPPNRMYPPPPPALPSSAPSGPPPPPPLSMAGSTAPPPPPPPPPPPGPPPPPGLPSDGDHQVPASSGNKAALLDQIREGAQLKKVEQNSRPVSCSGRDALLDQIRQGIQLKSVSDGQESTPPTPAPTSGIVGALMEVMQKRSKAIHSSDEDEDDDDEEDFQDDDEWED

For assay [1], the target named is T1, WASP GBD (GTPase binding domain, residues 242-310) (UniProt P42768 242-310).
T1 sequence (looked up): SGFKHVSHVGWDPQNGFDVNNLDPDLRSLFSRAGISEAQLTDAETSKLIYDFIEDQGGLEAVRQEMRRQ
As to the kind of experiment: NMR titration.

Assay [2] addresses B1. Briefly: ITC. A general note: Isothermal titration calorimetry measures the heat released or taken up as one component is titrated into another.
Assay [3] has as its target EspFU R47 (full 47-residue fifth repeat of EspFU) (enterohaemorrhagic E. coli (EHEC, …, UniProt P0DJ88 268-314)). As to the kind of experiment: ITC.

Take LPDVAQRLMQHLAEHGIQPARNMAEHIPPAPNW (domain or fragment) [EspFU R33 (N-terminal 33-residue fragment of the fifth repeat)]: the “stoichiometry N” value in assay [1] is 1 EspFU:GBD. The molecule also displayed a Kd in assay [2] of 35 nM.
Consider B1, for which the Kd in assay [3] is 35 nM.
Turning to LPDVAQRLMQHLAEHGIQ [EspFU R18 peptide], the Kd in assay [2] was 4000 nM.
